Laboratory results as given in doi:10.1101/2024.10.18.618978v3.

Columns and labels:
[1] = substrate: NCCCNCCCCNCCCN; assay: purified protein; conditions: 1 mM AcCoA, pH 7.5, 37 °C
[2] = substrate: NCCCNCCCCNCCCN; assay: colorimetric DTNB SSAT assay; type: biochemical, Staphylococcus aureus; conditions: 1 mM AcCoA, pH 7.5, 37 °C, approximate value given in Methods

Protein	Km ([1]; Michaelis-Menten fit) [µM]	K0.5 ([1]; allosteric sigmoidal fit) [µM]	Km [2] [µM]
SpeG (Staphylococcus aureus subsp. aureus USA300) (protein) MKLRALEYSDLLFVHELNNEYSIMSYWFEEPYESLTELQHLFDKHLLDESERRFIVEDENQVVGIVELVEINYIHRNCEIQIIIKPEFSGKGYAKFAFEKAIIYAFNILNMHKIYLYVDADNKKAIHIYESQGFKTEGLLKEQFYTKGKYKDAYFMSLLKSEYIL	1312 ± 348.1	757.5 ± 63.35	–
PaiASa (Staphylococcus aureus subsp. aureus USA300) (protein) MAGIIKEISEQNASELVELATRTFYDTFGSYYDDKDFDQFFKDNYTVEKFTQEINHVDSFHYFYQEDGANVGYIKMNINSAQTEEMGETYLEVQRIYFLKDFQGGGRGSQLIELAEKIAQEHNKHKIWLGVWEHNPRAQAFYKRHGFKVVGEHHFQTGDVTDTDLIMEKEL	–	–	2000
